Results taken from patent publication US20250186597A1, “TARGETED IMMUNE ACTIVATION WITH IL-18 IMMUNOCYTOKINES” (BRIGHT PEAK THERAPEUTICS AG, priority 2023, published 2025).

What was measured:
Format in all cases: cell-based, human
[1] = tested on: parental PD-1negative NK-92 cells; assay: IL-18BP mediated inhibition of IFN gamma secretion in parental PD-1 negative NK-92 cells (Example 18); details: IL-18BP-mediated inhibition of IFNγ secretion, IL-18 analyte 1 nM
Experimental: To characterize the resistance of anti-PD1-IL18 immunocytokines (IC) on PD-1 positive cells, the NK-92 cell line was used to generate a PD-1 expressing cell line and furthermore, to measure the inhibition of IFN[…] release upon incubation with IL-18 variants and ICs in the presence of increasing quantities of human IL-18BP.
On the day of experiment, parental PD-1^negative and PD-1^positive transduced cells were harvested and washed with PBS 1× and resuspended in medium (w/o IL-2) containing 1 ng/ml of recombinant human Interleukin-12 (SinoBiologicals, Cat #CT011-H08H). After counting, cells were seeded at 100 000 cells/well in a 384 well culture plate and incubated at 37° C./5% CO2. When indicated, cells were preincubated with anti-PD-1 antibody LZM-009 at 17 uM during 30 min at 37° C. […]
After 16-20 h incubation at 37° C./5% CO2, 5 μl of supernatant were carefully transferred to a 384 microwell OptiIPlate (Perkin Elmer; Cat #6007270) and Interferon-gamma (IFNγ) levels measured using the Human IFNγ AlphaLISA Assay Kit (Perkin Elmer, Cat #AL217C). […] AlphaLISA signal was then measured on an Enspire plate reader (Perkin Elmer) using 680 and 615 nm as excitation and emission wavelengths respectively. Half maximal inhibitory concentration (IC50) was calculated based on a variable slope, four parameter analysis using GraphPad PRISM software.

[2] = tested on: PD-1 positive (transduced) KG-1 cells; assay: IFN gamma secretion assay in PD-1 transduced KG-1 cells (Example 11)
Experimental: (§1) The KG-1 cell line was used to generate a PD-1 expressing cell line and furthermore, to measure IFNγ release upon incubation with IL-18 variants and corresponding IL-18 immunocytokines.
PD-1 expressing cell line generation: Briefly, KG-1 cells were transduced using lentiviral particles carrying the human PD-1 gene (PDCD1 NM_005018; Origene, CAT #: RC210364L3V) at a MOI (Multiplicity of Infection) of 30. Spinfection was performed at 1260 g during 90 min at 37° C. in the presence of 5 μg/ml of Polybrene and 10 mM of HEPES in complete culture media (RPMI, 10% FBS, 1% L-Glutamine). […]
IFNγ release was assessed in PD-1 positive (transduced) KG-1 cells, as well as in the parental PD-1 negative cells. […] The lowest concentration assessed was […]. After incubation, IFNγ release was measured using the LEGENDplex custom human mix and match KIT (Biolegend LEGENDplex™ Human IFN-γ Capture Bead B5, 13X #740942, LEGENDplex™ HU Essential Immune Response Panel Detection Abs, #740931, LEGENDplex™ Buffer Set A #740368). […] Fluorescence measurements were done with a Quanteon Flow Cytometer from Acea Biosciences. For analysis, MFI values (median fluorescence intensity) were exported and plotted against concentrations used. The EC50 values (half maximal effective concentration) were calculated based on a variable slope and four parameter analysis using GraphPad PRISM software version 9.

NK92 cells = assay: IFN gamma secretion assay in NK92 cells (Example 10); details: IFNγ secretion, 1 ng/ml IL-12
Experimental: The IFNγ-secretion stimulating activity of the unconjugated IL-18 variants and corresponding IL-18 immunocytokines was evaluated on NK92 cell line. The NK cell line NK-92 derived from a patient with lymphoma (ATCC, Cat #CRL-2407) was cultured in aMEM medium supplemented with 12.5% FCS, 12.5% horse serum (HS), 50 uM B-mercaptoEthanol, and 2 ng/ml of recombinant Human Interleukin-2 (IL-2).
On the day of experiment, cells were harvested and washed with aMEM medium without IL-2 and resuspended in medium (w/o IL-2) containing 1 ng/ml of recombinant human Interleukin-12 (SinoBiologicals, Cat #CT011-H08H). After counting, cells were seeded at 100 000 cells/well in a 384 well titer plate and incubated at 37° C./5% CO2. Sixteen 4-fold serial dilutions of IL-18 analytes were prepared in aMEM medium—1 ng/ml IL-12 and were added to the NK-92 cells. […]
After 16-20 h incubation at 37° C./5% CO2, 5 μl of supernatant were carefully transferred to a 384 microwells OPTIPlate (Perkin Elmer; Cat #6007270) and Interferon-gamma (IFNγ) levels measured using the Human IFNγ AlphaLISA Assay Kit (Perkin Elmer, Cat #AL217C). […] AlphaLisa signal was then measured on an Enspire plate reader (Perkin Elmer) using 680 and 615 nm as excitation and emission wavelengths respectively. Half maximal effective concentration (EC50) was calculated based on a variable slope, four parameter analysis using GraphPad PRISM software.

[3] = tested on: parental PD-1 negative KG-1 cells; assay: IFN gamma secretion assay in parental PD-1 negative KG-1 cells (Example 11); details: IFNγ secretion
Experimental: as §1
IFNγ release was assessed in PD-1 positive (transduced) KG-1 cells, as well as in the parental PD-1 negative cells. 0.5×10^5 cells were seeded into a 96-well U-bottom plate in culture media (RPMI, 10% FBS, 1% L-Glutamine) and stimulated with IL-18 variants/ICs for 20-24 h. The test items were diluted to 100 nM in culture medium, followed by 7 10-fold serial dilutions. The lowest concentration assessed was […]. After incubation, IFNγ release was measured using the LEGENDplex custom human mix and match KIT (Biolegend LEGENDplex™ Human IFN-γ Capture Bead B5, 13X #740942, LEGENDplex™ HU Essential Immune Response Panel Detection Abs, #740931, LEGENDplex™ Buffer Set A #740368). To this end, cell culture supernatant was collected and diluted 1:1 with Assay Buffer. Fluorescence measurements were done with a Quanteon Flow Cytometer from Acea Biosciences. For analysis, MFI values (median fluorescence intensity) were exported and plotted against concentrations used. The EC50 values (half maximal effective concentration) were calculated based on a variable slope and four parameter analysis using GraphPad PRISM software version 9.

EC50 ([2]; IFNγ secretion, PD-1 transduced KG-1): 8 pM | PD-1^neg/PD-1^pos EC50 ratio ([2]; KG-1 cells): 1.336 | EC50 (NK92 cells): 2 pM
B1: SEQ ID NO: 30: IL-18 polypeptide: E6K, V11I, C38A, K53A, T63A, C76A, C127A (protein)
chain: YFGKLKSKLSIIRNLNDQVLFIDQGNRPLFEDMTDSDARDNAPRTIFIISMYADSQPRGMAVAISVKCEKISTLSAENKIISFKEMNPPDNIKDTKSDIIFFQRSVPGHDNKMQFESSSYEGYFLAAEKERDLFKLILKKEDELGDRSIMFTVQNED
IC50 [1]: 110000 pM | EC50 [3]: 12 pM
